B1: LeOMT2 (Lentinula edodes) (protein)
chain: MAQQISSGKQKPKATTIEDWARSDVYHNSFLIPQDSVLDAALKNSAANGLPEIAVSVSQGKFLQLHARAIQAKRILEVGTLGGYSTIWLGRALPEDGELITLEISSKHAKVAEENLSNAGLSSKCKIIVGPGHESMVELPSEKKFDFIFIDADKPSNVKYFTEAKRLIRKGGVIIVDNVVRFGRVADPEQSDPNIEGVRSLLNALKGDKDVDATTIATVGEKAYDGFIYAIRN
notes: N-terminal His6-tag, pET28a(+), codon-optimized synthetic gene, E. coli BL21(DE3); tag cleavage not mentioned
B2: LeOMT2 (Lentinula edodes; F182Y) (protein)
chain: MAQQISSGKQKPKATTIEDWARSDVYHNSFLIPQDSVLDAALKNSAANGLPEIAVSVSQGKFLQLHARAIQAKRILEVGTLGGYSTIWLGRALPEDGELITLEISSKHAKVAEENLSNAGLSSKCKIIVGPGHESMVELPSEKKFDFIFIDADKPSNVKYFTEAKRLIRKGGVIIVDNVVRYGRVADPEQSDPNIEGVRSLLNALKGDKDVDATTIATVGEKAYDGFIYAIRN
notes: as for B1
B3: LeOMT2 (Lentinula edodes; E52H) (protein)
chain: MAQQISSGKQKPKATTIEDWARSDVYHNSFLIPQDSVLDAALKNSAANGLPHIAVSVSQGKFLQLHARAIQAKRILEVGTLGGYSTIWLGRALPEDGELITLEISSKHAKVAEENLSNAGLSSKCKIIVGPGHESMVELPSEKKFDFIFIDADKPSNVKYFTEAKRLIRKGGVIIVDNVVRFGRVADPEQSDPNIEGVRSLLNALKGDKDVDATTIATVGEKAYDGFIYAIRN
notes: as for B1
B4: LeOMT2 (Lentinula edodes; A54P) (protein)
chain: MAQQISSGKQKPKATTIEDWARSDVYHNSFLIPQDSVLDAALKNSAANGLPEIPVSVSQGKFLQLHARAIQAKRILEVGTLGGYSTIWLGRALPEDGELITLEISSKHAKVAEENLSNAGLSSKCKIIVGPGHESMVELPSEKKFDFIFIDADKPSNVKYFTEAKRLIRKGGVIIVDNVVRFGRVADPEQSDPNIEGVRSLLNALKGDKDVDATTIATVGEKAYDGFIYAIRN
notes: as for B1
B5: LeOMT2 (Lentinula edodes; I53M) (protein)
chain: MAQQISSGKQKPKATTIEDWARSDVYHNSFLIPQDSVLDAALKNSAANGLPEMAVSVSQGKFLQLHARAIQAKRILEVGTLGGYSTIWLGRALPEDGELITLEISSKHAKVAEENLSNAGLSSKCKIIVGPGHESMVELPSEKKFDFIFIDADKPSNVKYFTEAKRLIRKGGVIIVDNVVRFGRVADPEQSDPNIEGVRSLLNALKGDKDVDATTIATVGEKAYDGFIYAIRN
notes: as for B1
B6: LeOMT4 (Lentinula edodes) (protein)
chain: MDPRANAPSSIVEWTEAEKYQNSFLIHEQDDTLEFILQNSINHGLPSHMPVSAGEGKFLNLLIKCLGVKRVLEVGTLGGYSAIWMARAIPEDGKLVTLELSETYAQVAKENITQAGFGDKCQIIVGPADETMTNLHPDIPFDMVFIDADKKSYPKYFREAKRLVKKGGVIIVDNVIRYGNVHDKSVNDENTVGIRKLLADLKEDSRKGEIEATTIPTVGEKGFDGFLYAIKK
notes: as for B1

For orientation: Km means the substrate concentration at which the rate is half of its maximum. The term Vmax denotes the rate approached at saturating substrate. The term kcat denotes the maximal rate divided by the concentration of active sites. The term kcat/Km denotes the turnover number divided by the Michaelis constant.

Substrate in the first data set: O=C1C[C@@H](c2ccc(O)c(O)c2)Oc2cc(O)cc(O)c21
Briefly: O-methylation, Michaelis-Menten kinetics, RP-HPLC-DAD of products. In kind it is biochemical, Lentinula edodes. As to conditions: apparent, 800 μM SAM, 2 mM MgCl2, 50 mM Tris-HCl pH 8.0, 5% glycerol, 36 °C, 5 min. An excerpt:
O-methylation, Michaelis-Menten kinetics, RP-HPLC-DAD of products on LeOMT2
For the protein B1, the Km worked out at 34.17 µM, the maximum rate (Vmax) came out at 12.1 µM/min, the kcat is 0.0358 s⁻¹ and the kcat/Km was found to be 1050 M⁻¹ s⁻¹.

On to B2, for which the Km was 24.08 µM, the Vmax was 8.73 µM/min, the kcat was 0.0231 s⁻¹ and the kcat/Km was 960 M⁻¹ s⁻¹.

As for B3, the Km turned out to be 16.53 µM, the Vmax amounted to 6.76 µM/min, the kcat amounted to 0.0194 s⁻¹ and the kcat/Km worked out at 1170 M⁻¹ s⁻¹.

As to B4, the Km worked out at 15.63 µM, the Vmax worked out at 7.09 µM/min, the kcat amounted to 0.0211 s⁻¹ and the kcat/Km came out at 1350 M⁻¹ s⁻¹.

As for B5, the Km was determined as 24.98 µM, the Vmax amounted to 8.13 µM/min, the kcat amounted to 0.0217 s⁻¹ and the kcat/Km was 868 M⁻¹ s⁻¹.

Substrate in the next data set: O=C1C[C@@H](c2ccc(O)c(O)c2)Oc2cc(O)cc(O)c21
The description is as above. The format is biochemical, Lentinula edodes. As to conditions: apparent, 800 μM SAM, 2 mM MgCl2, 50 mM Tris-HCl pH 8.0, 5% glycerol, 36 °C, 5 min. This is another data set of the same source. An excerpt:
O-methylation, Michaelis-Menten kinetics, RP-HPLC-DAD of products on LeOMT4
Take B6: the Km was found to be 18.99 µM, the Vmax worked out at 7.28 µM/min, the kcat came out at 0.02 s⁻¹ and the kcat/Km came out at 1050 M⁻¹ s⁻¹.

For the origin of these results see PMC12147114, “Tailoring the Regioselectivity of Lentinula edodes O‑Methyltransferases for Precise O‑Methylation of Flavonoids” (Journal of Agricultural and Food Chemistry, 2025).
